{"source": "paper PMC4333373", "about": "“Specific and non-specific interactions of ParB with DNA: implications for chromosome segregation”", "binders": {"B1": {"name": "50-bp parS (dsDNA)", "DNA 1": "CAGCAGTTGAATCAGAATGTTCCACGTGAAACAAAGAAAAAAGAACCTGT", "DNA 2": "ACAGGTTCTTTTTTCTTTGTTTCACGTGGAACATTCTGATTCAACTGCTG"}, "B2": {"name": "24-bp parS (dsDNA)", "DNA 1": "AGAATGTTCCACGTGAAACAAAGA", "DNA 2": "TCTTTGTTTCACGTGGAACATTCT"}, "B3": {"name": "24-bp non-specific (dsDNA)", "DNA 1": "AGAACGTGCCCAGGGAGACAAAGA", "DNA 2": "TCTTTGTCTCCCTGGGCACGTTCT"}, "B4": {"name": "100-bp parS (dsDNA)", "DNA 1": "TGTTCGCCAACTTGAGCAGCTGATTCAGCAGTTGAATCAGAATGTTCCACGTGAAACAAAGAAAAAAGAACCTGTGAAAGATGCGGTTCTAAAAGAACGG", "DNA 2": "CCGTTCTTTTAGAACCGCATCTTTCACAGGTTCTTTTTTCTTTGTTTCACGTGGAACATTCTGATTCAACTGCTGAATCAGCTGCTCAAGTTGGCGAACA"}, "B5": {"name": "100-bp non-specific (dsDNA)", "DNA 1": "B4 DNA 1 with T43C, T46G, A49C, C50A, T52G, A55G", "DNA 2": "B4 DNA 2 with T46C, A49C, G51T, T52G, A55C, A58G"}}, "key": {"ParB (Spo0J) [1]": {"molecular_target": "T1, ParB (Spo0J) (Bacillus subtilis 168, UniProt P26497 1-282)", "T1 sequence": "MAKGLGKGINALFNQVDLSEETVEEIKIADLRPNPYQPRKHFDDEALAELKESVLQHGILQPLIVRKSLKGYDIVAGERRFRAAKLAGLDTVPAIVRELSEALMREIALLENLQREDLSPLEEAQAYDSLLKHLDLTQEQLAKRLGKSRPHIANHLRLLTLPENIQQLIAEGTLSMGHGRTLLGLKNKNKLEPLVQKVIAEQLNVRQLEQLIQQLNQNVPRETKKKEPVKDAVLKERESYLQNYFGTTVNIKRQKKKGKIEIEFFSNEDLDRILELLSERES", "assay": "SEC-MALS; 50 mM Hepes-KOH pH 7.5, 100 mM KCl, 2.5 mM MgCl2, 0.1 mg/ml BSA, 1 mM DTT, 20 nM DNA; EMSA also 2.5% Ficoll, room temperature 30 min then ice 5 min, gel at 4 C", "conditions": "protein: recombinant, tags: untagged, chain copies: 2, blunt"}, "ParB (Spo0J) [2]": {"molecular_target": "T1, ParB (Spo0J)", "assay": "SEC-MALS; 9 uM ParB2, 10 uM DNA; 81.6 ± 1.9 kDa, one dimer per DNA; 50 mM Hepes-KOH pH 7.5, 100 mM KCl, 2.5 mM MgCl2, 0.1 mg/ml BSA, 1 mM DTT, 20 nM DNA; EMSA also 2.5% Ficoll, room temperature 30 min then ice 5 min, gel at 4 C", "conditions": "protein: recombinant; tags: untagged; chain copies: 2; label: 5'-Hex on forward strand; blunt"}, "ParB (Spo0J) [3]": {"molecular_target": "T1, ParB (Spo0J)", "assay": "SEC-MALS; 80 uM ParB2; 50 mM Hepes-KOH pH 7.5, 100 mM KCl, 2.5 mM MgCl2, 0.1 mg/ml BSA, 1 mM DTT, 20 nM DNA; EMSA also 2.5% Ficoll, room temperature 30 min then ice 5 min, gel at 4 C", "conditions": "protein: recombinant; tags: untagged; chain copies: 2; label: 5'-Hex on forward strand; blunt"}, "[4]": {"conditions": "label: 5'-Hex on forward strand"}}, "note": "Residue numbers refer to the chain shown, from its start.", "data": [{"binder": "B1", "values": [{"measurement": "binding result", "setting": "ParB (Spo0J) [1]; label: 5'-Hex on forward strand (SEC-MALS)", "result": "binds"}]}, {"binder": "B2", "values": [{"measurement": "binding result", "setting": "ParB (Spo0J) [2]", "result": "binds"}]}, {"binder": "B3", "values": [{"measurement": "binding result", "setting": "ParB (Spo0J) [3]", "result": "binds"}]}, {"binder": "B4", "values": [{"measurement": "binding result", "setting": "ParB (Spo0J) [1]; [4]", "result": "binds"}]}, {"binder": "B5", "values": [{"measurement": "binding result", "setting": "ParB (Spo0J) [1]; [4]", "result": "binds"}]}]}
